Reference: patent US20100062005A1 (University of California, published 2010)
Where two headings read alike, the source gives them in different places.

Assays:
human ROR1 protein [1] = target: T1, human ROR1 protein (human, UniProt Q01973 30-937)
human ROR1 protein [2] = target: T1, human ROR1 protein; assay: flow cytometry on CD5-negative, CD10+, CD19+ marrow B lymphocyte precursors (N=9 samples)
human ROR1 protein [3] = target: T1, human ROR1 protein; assay: flow cytometry, Alexa-647-4A5 against IgG2b isotype control, ZAP-70-negative CLL cases (N=36)
human ROR1 protein [4] = target: T1, human ROR1 protein; assay: flow cytometry, Alexa-647-4A5 against IgG2b isotype control, ZAP-70-positive CLL cases (N=33)

T1 sequence (Q01973 30-937 limits assumed): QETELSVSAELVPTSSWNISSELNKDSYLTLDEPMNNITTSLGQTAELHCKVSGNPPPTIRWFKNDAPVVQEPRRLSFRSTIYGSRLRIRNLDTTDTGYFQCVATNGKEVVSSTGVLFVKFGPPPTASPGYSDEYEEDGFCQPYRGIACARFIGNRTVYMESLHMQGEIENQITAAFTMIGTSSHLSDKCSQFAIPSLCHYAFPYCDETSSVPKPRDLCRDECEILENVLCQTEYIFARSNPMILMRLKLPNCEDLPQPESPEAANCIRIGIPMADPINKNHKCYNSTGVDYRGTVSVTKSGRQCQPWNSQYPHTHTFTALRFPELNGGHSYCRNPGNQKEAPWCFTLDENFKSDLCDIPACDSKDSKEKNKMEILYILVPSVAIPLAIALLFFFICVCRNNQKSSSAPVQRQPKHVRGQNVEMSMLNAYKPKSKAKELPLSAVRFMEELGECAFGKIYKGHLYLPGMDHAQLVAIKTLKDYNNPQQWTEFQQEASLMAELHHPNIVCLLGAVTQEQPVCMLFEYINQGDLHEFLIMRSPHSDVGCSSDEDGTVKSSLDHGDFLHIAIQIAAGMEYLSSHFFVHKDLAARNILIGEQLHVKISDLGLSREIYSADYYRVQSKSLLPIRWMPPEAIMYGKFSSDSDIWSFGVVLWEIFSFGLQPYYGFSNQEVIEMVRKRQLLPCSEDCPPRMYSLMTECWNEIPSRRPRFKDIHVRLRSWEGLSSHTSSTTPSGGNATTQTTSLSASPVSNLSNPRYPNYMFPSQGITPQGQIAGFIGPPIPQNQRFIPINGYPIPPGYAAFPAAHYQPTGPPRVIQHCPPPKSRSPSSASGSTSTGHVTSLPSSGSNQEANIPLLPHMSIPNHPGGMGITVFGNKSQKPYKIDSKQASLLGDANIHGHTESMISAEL

MFI ratio (MFIR) (human ROR1 protein [1]): 10 ratio | MFI ratio (MFIR) (human ROR1 protein [2]): 6.3 ratio | average MFIR (human ROR1 protein [3]): 12.4 ratio | median MFIR (human ROR1 protein [3]): 12 ratio | average MFIR (human ROR1 protein [4]): 12 ratio | median MFIR (human ROR1 protein [4]): 12.2 ratio
B1: 4A5 anti-ROR1 mAb (antibody, V domains shown)
VH: EVKLVESGGGLVKPGGSLKLSCAASGFTFSSYAMSWVRQIPEKRLEWVASISRGGTTYYPDSVKGRFTISRDNVRNILYLQMSSLRSEDTAMYYCGRYDYDGYYAMDYWGQGTSVTVSS
VL: DIKMTQSPSSMYASLGERVTITCKASPDINSYLSWFQQKPGKSPKTLIYRANRLVDGVPSRFSGGGSGQDYSLTINSLEYEDMGIYYCLQYDEFPYTFGGGTKLEMK
